# Experimental data: patent publication US10562947B2, “Compositions and methods for preventing or treating diseases, conditions or processes characterized by aberrant fibroblast proliferation and extracellular matrix deposition” (MOERAE MATRIX, INC., priority 2011, dated 2020)
# Experiments:
# Assay in all cases: Kinase Profiling Assay
# Type in all cases: biochemical
# Conditions in all cases: 100 μM peptide
# CHK1(h) = biological target: T1, CHK1(h) (Homo sapiens, UniProt O14757)
# T1 sequence (O14757 1-476): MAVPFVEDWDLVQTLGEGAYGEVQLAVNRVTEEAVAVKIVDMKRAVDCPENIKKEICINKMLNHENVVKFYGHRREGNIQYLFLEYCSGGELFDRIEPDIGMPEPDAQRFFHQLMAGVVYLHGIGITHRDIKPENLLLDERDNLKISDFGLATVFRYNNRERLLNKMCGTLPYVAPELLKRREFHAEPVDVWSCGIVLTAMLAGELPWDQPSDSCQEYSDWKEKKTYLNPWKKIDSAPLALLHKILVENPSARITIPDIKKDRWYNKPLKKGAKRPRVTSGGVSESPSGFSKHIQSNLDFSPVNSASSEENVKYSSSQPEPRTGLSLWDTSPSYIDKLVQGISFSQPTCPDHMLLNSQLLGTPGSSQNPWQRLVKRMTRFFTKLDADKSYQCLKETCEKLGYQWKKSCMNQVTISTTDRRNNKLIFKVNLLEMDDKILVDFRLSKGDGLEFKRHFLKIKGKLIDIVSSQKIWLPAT
# Summary of the method: (§1)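 Off-target screen of MK2 peptide inhibitors, 266 human kinases, n = 2 per activity measurement.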
# PKCθ(h) = biological target: T2, PKCθ(h) (Homo sapiens, UniProt Q04759)
# T2 construct: purchased Millipore (IC50 Profiler Express service)
# T2 sequence (Q04759 whole entry): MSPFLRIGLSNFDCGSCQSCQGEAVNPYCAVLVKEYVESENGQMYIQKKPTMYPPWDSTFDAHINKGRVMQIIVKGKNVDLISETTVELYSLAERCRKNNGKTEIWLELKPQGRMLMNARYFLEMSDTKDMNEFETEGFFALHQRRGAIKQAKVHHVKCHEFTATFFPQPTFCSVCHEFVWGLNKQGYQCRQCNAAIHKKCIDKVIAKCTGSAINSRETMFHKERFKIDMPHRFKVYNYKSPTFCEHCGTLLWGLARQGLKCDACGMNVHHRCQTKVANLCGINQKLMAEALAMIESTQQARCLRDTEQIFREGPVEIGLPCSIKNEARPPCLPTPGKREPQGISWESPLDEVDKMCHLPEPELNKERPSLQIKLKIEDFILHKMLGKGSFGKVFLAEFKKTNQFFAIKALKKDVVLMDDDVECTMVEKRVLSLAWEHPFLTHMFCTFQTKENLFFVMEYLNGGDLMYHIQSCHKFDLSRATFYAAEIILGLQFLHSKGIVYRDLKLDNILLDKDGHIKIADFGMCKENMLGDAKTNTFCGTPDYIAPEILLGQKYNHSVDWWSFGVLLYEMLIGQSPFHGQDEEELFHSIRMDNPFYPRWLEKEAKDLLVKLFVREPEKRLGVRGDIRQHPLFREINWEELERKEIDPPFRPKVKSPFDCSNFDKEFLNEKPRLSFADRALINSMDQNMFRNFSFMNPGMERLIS
# Summary of the method: as §1
# KDR(h) = KDR(h) (Homo sapiens, UniProt P35968)
# Sequence of KDR(h) (P35968 20-1356): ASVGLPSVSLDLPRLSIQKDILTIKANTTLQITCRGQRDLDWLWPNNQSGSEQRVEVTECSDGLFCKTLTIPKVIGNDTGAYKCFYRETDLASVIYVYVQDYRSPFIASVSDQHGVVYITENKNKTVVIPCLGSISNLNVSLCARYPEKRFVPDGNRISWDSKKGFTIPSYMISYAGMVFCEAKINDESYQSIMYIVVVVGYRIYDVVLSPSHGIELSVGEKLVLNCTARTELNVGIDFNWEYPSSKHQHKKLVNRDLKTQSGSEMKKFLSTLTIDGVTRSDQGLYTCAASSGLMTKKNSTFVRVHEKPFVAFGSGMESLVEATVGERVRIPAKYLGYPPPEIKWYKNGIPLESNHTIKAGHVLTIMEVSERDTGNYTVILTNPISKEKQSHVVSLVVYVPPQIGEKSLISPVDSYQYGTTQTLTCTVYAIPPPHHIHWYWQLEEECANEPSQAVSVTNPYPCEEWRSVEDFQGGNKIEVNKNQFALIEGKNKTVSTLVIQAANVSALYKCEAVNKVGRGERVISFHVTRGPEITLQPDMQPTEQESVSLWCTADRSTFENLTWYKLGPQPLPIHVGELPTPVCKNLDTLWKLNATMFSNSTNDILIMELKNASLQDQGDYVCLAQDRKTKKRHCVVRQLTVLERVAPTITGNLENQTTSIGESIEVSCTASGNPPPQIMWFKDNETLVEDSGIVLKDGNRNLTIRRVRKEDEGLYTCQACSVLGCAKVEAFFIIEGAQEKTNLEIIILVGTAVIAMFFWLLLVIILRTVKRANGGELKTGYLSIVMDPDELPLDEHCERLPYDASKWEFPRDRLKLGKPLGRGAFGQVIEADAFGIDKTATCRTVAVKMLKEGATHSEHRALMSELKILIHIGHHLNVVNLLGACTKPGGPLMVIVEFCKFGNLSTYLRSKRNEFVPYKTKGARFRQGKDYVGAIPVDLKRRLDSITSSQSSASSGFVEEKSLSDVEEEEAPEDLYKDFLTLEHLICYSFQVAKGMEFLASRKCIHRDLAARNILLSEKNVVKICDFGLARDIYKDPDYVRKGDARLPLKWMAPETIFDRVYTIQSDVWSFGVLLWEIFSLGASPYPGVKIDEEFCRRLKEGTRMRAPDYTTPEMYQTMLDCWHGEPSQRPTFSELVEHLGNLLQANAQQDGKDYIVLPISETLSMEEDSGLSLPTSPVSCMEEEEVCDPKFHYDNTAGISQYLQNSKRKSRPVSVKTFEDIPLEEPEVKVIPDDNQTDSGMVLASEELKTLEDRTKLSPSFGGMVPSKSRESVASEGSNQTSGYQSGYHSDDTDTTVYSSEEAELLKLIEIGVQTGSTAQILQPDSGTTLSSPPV
# Summary of the method: as §1
# FGFR4(h) = FGFR4(h) (Homo sapiens, UniProt P22455)
# Summary of the method: as §1
# Src(1-530)(h) = biological target: T3, Src(1-530)(h) (Homo sapiens, UniProt P12931)
# T3 construct: Src(1-530)
# Summary of the method: as §1
# CLK3(h) = CLK3(h) (Homo sapiens, UniProt P49761)
# Sequence of CLK3(h) (P49761 whole entry): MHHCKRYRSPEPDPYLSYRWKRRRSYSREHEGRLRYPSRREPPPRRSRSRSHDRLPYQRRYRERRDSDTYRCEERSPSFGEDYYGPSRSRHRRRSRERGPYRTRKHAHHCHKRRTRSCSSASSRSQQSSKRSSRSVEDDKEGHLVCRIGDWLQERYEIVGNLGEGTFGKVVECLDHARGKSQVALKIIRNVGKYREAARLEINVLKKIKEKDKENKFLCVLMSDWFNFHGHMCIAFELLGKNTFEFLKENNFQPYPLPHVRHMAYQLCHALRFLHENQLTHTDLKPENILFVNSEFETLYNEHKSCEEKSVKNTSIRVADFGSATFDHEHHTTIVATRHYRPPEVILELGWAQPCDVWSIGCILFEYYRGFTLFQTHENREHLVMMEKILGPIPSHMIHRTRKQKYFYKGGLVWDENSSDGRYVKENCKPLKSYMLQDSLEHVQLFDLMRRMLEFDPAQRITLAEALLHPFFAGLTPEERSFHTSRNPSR
# Summary of the method: as §1
# GCK(h) = biological target: T4, GCK(h) (Homo sapiens, UniProt Q12851)
# T4 construct: purchased Millipore
# T4 sequence (Q12851 1-820): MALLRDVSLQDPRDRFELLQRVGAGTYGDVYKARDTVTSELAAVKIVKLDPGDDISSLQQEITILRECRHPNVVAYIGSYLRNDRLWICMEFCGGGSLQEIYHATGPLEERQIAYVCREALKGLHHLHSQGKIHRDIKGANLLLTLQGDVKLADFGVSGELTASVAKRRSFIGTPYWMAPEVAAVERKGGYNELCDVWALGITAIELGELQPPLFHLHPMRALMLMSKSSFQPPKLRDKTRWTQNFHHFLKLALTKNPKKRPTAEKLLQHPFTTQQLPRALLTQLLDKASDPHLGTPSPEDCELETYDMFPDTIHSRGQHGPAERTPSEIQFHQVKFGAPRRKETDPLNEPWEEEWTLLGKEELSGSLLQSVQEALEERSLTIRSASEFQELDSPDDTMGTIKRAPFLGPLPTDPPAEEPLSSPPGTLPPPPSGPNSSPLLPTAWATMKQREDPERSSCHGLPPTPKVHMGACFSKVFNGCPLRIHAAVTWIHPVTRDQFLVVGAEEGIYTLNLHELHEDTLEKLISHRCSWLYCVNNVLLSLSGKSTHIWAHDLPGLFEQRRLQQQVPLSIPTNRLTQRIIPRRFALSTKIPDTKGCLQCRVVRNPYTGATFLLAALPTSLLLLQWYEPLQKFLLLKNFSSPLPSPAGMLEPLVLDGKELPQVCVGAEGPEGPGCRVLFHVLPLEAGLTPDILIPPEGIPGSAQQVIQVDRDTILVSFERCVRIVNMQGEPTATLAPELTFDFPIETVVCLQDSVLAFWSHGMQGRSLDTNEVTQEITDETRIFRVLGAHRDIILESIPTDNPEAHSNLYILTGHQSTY
# Summary of the method: as §1
# Yes(h) = Yes(h) (Homo sapiens, UniProt P07947)
# Sequence of Yes(h) (P07947 whole entry): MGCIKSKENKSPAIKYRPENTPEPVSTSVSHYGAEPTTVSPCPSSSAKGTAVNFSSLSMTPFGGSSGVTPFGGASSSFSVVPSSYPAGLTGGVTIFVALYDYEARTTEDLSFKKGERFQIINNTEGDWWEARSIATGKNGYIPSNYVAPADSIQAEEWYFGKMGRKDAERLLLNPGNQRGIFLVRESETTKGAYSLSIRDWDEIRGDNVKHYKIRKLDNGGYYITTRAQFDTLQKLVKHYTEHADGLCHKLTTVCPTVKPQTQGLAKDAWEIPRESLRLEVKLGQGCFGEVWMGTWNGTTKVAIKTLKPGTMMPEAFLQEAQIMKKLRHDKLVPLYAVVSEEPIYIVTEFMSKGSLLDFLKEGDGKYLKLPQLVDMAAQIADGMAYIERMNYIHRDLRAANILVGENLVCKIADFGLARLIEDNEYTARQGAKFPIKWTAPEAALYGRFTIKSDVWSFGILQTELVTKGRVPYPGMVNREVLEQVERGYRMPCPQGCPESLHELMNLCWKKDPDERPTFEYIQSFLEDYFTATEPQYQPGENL
# Summary of the method: as §1
# PKCβI(h) = PKCβI(h) (Homo sapiens, UniProt P05771)
# Sequence of PKCβI(h) (P05771 whole entry): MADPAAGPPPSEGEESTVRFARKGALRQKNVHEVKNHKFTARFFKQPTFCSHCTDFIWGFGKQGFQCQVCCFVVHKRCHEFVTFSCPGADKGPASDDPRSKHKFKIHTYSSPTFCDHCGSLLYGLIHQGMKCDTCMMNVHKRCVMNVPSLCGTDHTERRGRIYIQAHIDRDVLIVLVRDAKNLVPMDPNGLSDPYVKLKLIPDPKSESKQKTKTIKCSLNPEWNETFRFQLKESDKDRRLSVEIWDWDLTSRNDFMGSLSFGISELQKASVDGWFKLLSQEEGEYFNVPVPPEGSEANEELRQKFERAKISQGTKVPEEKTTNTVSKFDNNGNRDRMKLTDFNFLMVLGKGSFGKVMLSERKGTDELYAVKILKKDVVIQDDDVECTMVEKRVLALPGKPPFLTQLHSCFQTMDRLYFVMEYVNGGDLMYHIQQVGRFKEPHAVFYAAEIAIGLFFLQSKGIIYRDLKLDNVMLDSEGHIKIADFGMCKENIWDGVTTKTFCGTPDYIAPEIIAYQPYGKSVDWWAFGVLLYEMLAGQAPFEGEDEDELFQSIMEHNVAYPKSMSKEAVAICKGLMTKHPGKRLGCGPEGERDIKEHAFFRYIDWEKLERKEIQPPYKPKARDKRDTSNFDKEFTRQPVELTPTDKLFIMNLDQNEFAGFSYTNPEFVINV
# Summary of the method: as §1
# EphA1(h) = biological target: T5, EphA1(h) (Homo sapiens, UniProt P21709)
# T5 sequence (P21709 26-976): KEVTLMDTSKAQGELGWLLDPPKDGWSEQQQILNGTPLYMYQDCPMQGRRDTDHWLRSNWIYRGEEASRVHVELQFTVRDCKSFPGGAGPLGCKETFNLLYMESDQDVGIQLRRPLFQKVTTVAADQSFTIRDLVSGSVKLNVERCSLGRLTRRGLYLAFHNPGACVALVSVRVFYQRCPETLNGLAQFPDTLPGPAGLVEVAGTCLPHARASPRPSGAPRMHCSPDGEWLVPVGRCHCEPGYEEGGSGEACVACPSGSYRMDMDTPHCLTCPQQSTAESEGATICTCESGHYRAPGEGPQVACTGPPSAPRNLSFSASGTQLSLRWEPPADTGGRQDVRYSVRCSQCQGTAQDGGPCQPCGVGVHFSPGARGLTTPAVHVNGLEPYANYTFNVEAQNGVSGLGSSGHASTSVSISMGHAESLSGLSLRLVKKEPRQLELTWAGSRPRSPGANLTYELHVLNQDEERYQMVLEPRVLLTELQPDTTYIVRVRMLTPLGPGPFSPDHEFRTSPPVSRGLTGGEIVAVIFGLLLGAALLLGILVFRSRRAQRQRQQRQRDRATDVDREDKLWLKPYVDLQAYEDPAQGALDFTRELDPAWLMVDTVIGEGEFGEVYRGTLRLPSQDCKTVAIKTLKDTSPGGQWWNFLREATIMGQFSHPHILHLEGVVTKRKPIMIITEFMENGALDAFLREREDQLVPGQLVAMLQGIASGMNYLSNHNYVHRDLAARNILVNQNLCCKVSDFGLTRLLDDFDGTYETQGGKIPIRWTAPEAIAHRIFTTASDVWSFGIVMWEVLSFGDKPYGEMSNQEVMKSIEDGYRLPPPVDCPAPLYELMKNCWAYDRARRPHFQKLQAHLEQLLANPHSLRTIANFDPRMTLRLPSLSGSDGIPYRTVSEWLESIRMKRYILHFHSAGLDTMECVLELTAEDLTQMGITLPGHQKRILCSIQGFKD
# Summary of the method: as §1
# Pim-1(h) = Pim-1(h) (Homo sapiens, UniProt P11309)
# Sequence of Pim-1(h) (P11309 whole entry): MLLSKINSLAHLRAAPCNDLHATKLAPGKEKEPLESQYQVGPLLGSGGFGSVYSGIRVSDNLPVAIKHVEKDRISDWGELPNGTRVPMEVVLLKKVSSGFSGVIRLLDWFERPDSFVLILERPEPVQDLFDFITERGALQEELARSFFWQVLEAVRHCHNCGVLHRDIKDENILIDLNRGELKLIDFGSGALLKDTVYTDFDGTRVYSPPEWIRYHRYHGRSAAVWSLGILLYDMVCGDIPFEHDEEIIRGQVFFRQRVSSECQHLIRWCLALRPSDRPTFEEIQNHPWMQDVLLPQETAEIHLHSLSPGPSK
# Summary of the method: as §1
Sequence,CHK1(h) % activity (CHK1(h)) [%],PKCθ(h) % activity (PKCθ(h)) [%],KDR(h) % activity (KDR(h)) [%],FGFR4(h) % activity (FGFR4(h)) [%],Src(1-530)(h) % activity (Src(1-530)(h)) [%],CLK3(h) % activity (CLK3(h)) [%],GCK(h) % activity (GCK(h)) [%],Yes(h) % activity (Yes(h)) [%],PKCβI(h) % activity (PKCβI(h)) [%],EphA1(h) % activity (EphA1(h)) [%],Pim-1(h) % activity (Pim-1(h)) [%]
FAKLAARLYRKALARQLGVAA [MMI-0300],91,88,101,28,23,61,70,67,78,73,8
HRRIKAWLKKIKALARQLGVAA (Mammalian) [MMI-0500],65,62,15,3,21,76,30,–,1,40,0
KAFAKLAARLYRKALARQLGVAA [MMI-0400],87,76,94,19,19,84,66,14,78,61,7
YARAAARQARAKALNRQLGVA (Mammalian) [MMI-0200],–,101,110,75,75,76,99,93,98,–,18
